Assay results: publication PMC2651776 (Nucleic Acids Research, 2009)

How the values were obtained:
MepR [1] = target: T1, MepR (Staphylococcus aureus, UniProt Q5Y812); type: binding
T1 sequence (Q5Y812 1-139): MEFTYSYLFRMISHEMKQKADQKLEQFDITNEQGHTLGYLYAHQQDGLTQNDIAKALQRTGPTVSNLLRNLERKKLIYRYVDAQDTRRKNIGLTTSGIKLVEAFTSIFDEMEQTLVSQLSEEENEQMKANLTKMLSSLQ

SEC = target: the molecule itself; assay: SEC
MepR [2] = target: MepR (Staphylococcus aureus, UniProt A0A0H3JPT9 1-139); assay: fluorescence polarization

For `N=C(N)c1ccc(-c2cc3ccc(C(=N)N)cc3[nH]2)cc1` [DAPI, 4′,6-diamidino-2-phenylindole], which Kd (MepR [1]) is on record?
The Kd was 4500 nM.

How did the Kd (MepR [1]) turn out when `CC[n+]1c(-c2ccccc2)c2cc(N)ccc2c2ccc(N)cc21` [ethidium] was run?
The Kd was 2600 nM.

`CC/N=c1\cc2oc3cc(NCC)c(C)cc3c(-c3ccccc3C(=O)OCC)c-2cc1C` [rhodamine 6G] was tested. Which Kd (MepR [1]) did it give?
The Kd was 62600 nM.

B1: MepR (natural protein, Staphylococcus aureus)
chain: T1 sequence (Q5Y812 1-139)
How did the “stoichiometry N” value (SEC) turn out when B1 was run?
The value was 2.

B2: mepA 26 bp (3'-truncated) (dsDNA)
DNA 1: TTATAGTTAGATATCTAATTGTTAGT
DNA 2: ACTAACAATTAGATATCTAACTATAA
Which Kd (MepR [2]) does the source give for B2 here?
Its Kd is 15.3 nM.

B3: mepR 26 bp site (dsDNA)
DNA 1: TATTTAGTTAGACATCTAACGAATGG
DNA 2: CCATTCGTTAGATGTCTAACTAAATA
How did the Kd (MepR [2]) turn out when B3 was run?
Its Kd is 24.3 nM.

B4: mepA 44 bp full site (dsDNA)
DNA 1: TTATAGTTAGATATCTAATTGTTAGTAAGCTAATTATTGGAAAA
DNA 2: TTTTCCAATAATTAGCTTACTAACAATTAGATATCTAACTATAA
With B4 as the molecule, how does the Kd (MepR [2]) read?
The Kd was 6.3 nM.

B5: mepA 22 bp (3'-truncated) (dsDNA)
DNA 1: TTATAGTTAGATATCTAATTGT
DNA 2: ACAATTAGATATCTAACTATAA
B5 was tested. Which Kd (MepR [2]) did it give?
Its Kd is 46.4 nM.
